In patent US20100325744A1 (Genmab, published 2010):
One block for each binder: values may come before it.

Columns and labels:
[1] = biological target: the molecule itself; test: self-association; gel filtration on Superdex 200 in PBS, fractions read by Bet v 1 binding test
Method: Samples (100 μl) were applied to a Superdex 200 HR 10/30 column (Amersham Biosciences, Uppsala, Sweden), which was connected to a HPLC system (ÄKTA explorer) from Amersham Biosciences, Uppsala, Sweden. The column was first equilibrated in PBS. Fractions of 250 μl were collected, in which Bet v 1 specific IgG was measured using the antigen binding assay.
To test the antigen binding of the Bet v 1 specific antibodies, a sample of diluted antibody was incubated overnight at room temperature with 0.75 mg Protein-G sepharose (Amersham Biosciences, Uppsala, Sweden) in 750 μl PBS/AT (PBS supplemented with 0.3% BSA, 0.1% Tween-20, 0.05% NaN3) together with 50 μl diluted ¹²⁵I-labelled Bet v 1 or ¹²⁵I-labelled Fel d 1. […] After washing the Sepharose suspension with PBS-T (PBS supplemented with 0.1% Tween-20), the bound radioactivity was measured. The results were expressed as the amount of radioactivity relative to the amount added.

[2] = biological target: T1, human C1q (Quidel) (human, UniProt P02745 23-245; P02746 28-253; P02747 29-245); test: ELISA, antibody coated, C1q detected with rabbit anti-human C1q
T1 construct: Bought (Quidel, lot 900848); also called first component of the classical complement cascade
T1 sequence (P02745 23-245 limits assumed, chain 1 of 3): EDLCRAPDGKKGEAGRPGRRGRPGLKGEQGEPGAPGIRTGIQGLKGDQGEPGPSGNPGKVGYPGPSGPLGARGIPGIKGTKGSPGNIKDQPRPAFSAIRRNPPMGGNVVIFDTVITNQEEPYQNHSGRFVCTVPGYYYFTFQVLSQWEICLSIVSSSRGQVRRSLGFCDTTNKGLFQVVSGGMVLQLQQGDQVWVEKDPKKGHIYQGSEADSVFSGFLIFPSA
T1 sequence (P02746 28-253 limits assumed, chain 2 of 3): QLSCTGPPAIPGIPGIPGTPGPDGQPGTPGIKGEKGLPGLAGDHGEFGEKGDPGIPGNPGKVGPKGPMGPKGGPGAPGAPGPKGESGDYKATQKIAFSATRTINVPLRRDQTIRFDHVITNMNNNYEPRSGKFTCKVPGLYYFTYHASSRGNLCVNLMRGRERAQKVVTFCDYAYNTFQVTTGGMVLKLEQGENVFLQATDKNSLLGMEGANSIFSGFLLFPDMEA
T1 sequence (P02747 29-245 limits assumed, chain 3 of 3): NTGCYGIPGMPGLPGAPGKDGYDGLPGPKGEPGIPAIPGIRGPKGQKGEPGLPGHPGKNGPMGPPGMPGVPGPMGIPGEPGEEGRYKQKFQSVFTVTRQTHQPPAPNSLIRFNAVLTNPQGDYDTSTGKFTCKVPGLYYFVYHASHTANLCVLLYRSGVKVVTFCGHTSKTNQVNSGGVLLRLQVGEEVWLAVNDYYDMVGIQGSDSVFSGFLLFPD
Method: In short, microtiter ELISA plates (Greiner, Germany) were coated overnight at RT with the test antibodies serially diluted from 10 μg/ml to 0.06 μg/ml in PBS. Plates were emptied and wells were blocked with 200 μl ELISA-diluent per well (0.1 M NaPO₄, 0.1 M NaCl, 0.1% gelatin and 0.05% Tween-20), at RT for 30 minutes. […] After washing the plates (3×) with PBST, wells were incubated with HRP-conjugated swine anti-rabbit IgG-Fc (DAKO, P0300, lot #069) diluted in ELISA diluent (1:2500, 100 μl/well, RT, 1 hour). Thereafter, plates were washed thrice and assays were developed with freshly prepared 1 mg/ml ABTS solution (ABTS: 2,2′-azino-bis[3-ethylbenzthiazoline-6-sulfonic acid]); 2 tablets of 5 mg in 10 ml ABTS buffer, Boehringer Mannheim, Ingelheim, Germany) at RT in the dark for 30 minutes.

B1: Betv1-HG (antibody, V domains shown)
VH: EVQLQQSGAELVKPGASVKLSCTASGFNIKDTYIHWVKQRPEQGLEWVGRIDPATGNTRYDPKFQGKATITADTSSNTAYLQLSSLTSEDTAVYYCASFRPGYALDYWGQGTSVTVSS
VL: DIVMTQSHKFMSTSVGDRVSFTCKASQDVFTAVAWYQQKPGQSPKLLIYWASTRRTGVPDRFTGSGSGTDYTLTISSVQAEDLALYYCQQHFSTPPTFGGGTKLEIK
notes: Half-molecule of one heavy and one light chain; also called hingeless IgG4 anti-Bet v 1; hingeless rIgG4 Betv1-HG; not shown: human kappa light chain constant region, allotype km3 (vector pConKappa0.4, Lonza)
binding result [1]: no binding

binding result [2]: no binding
B2: 7D8-IgG4 (antibody)
heavy: not shown
light: EIVLTQSPATLSLSPGERATLSCRASQSVSSYLAWYQQKPGQAPRLLIYDASNRATGIPARFSGSGSGTDFTLTISSLEPEDFAVYYCQQRSNWPITFGQGTRLEIK
notes: Produced from pTomG47D8 and pConK7D8; also called IgG4 anti-CD20; not shown: human kappa light chain constant region, allotype km3 (vector pConKappa0.4, Lonza)

binding result [2]: no binding
B3: 7D8-HG (antibody)
heavy: EVQLVESGGGLVQPDRSLRLSCAASGFTFHDYAMHWVRQAPGKGLEWVSTISWNSGTIGYADSVKGRFTISRDNAKNSLYLQMNSLRAEDTALYYCAKDIQYGNYYYGMDVWGQGTTVTVSSASTKGPSVFPLAPCSRSTSESTAALGCLVKDYFPEPVTVSWNSGALTSGVHTFPAVLQSSGLYSLSSVVTVPSSSLGTKTYTCNVDHKPSNTKVDKRVAPEFLGGPSVFLFPPKPKDTLMISRTPEVTCVVVDVSQEDPEVQFNWYVDGVEVHNAKTKPREEQFNSTYRVVSVLTVLHQDWLNGKEYKCKVSNKGLPSSIEKTISKAKGQPREPQVYTLPPSQEEMTKNQVSLTCLVKGFYPSDIAVEWESNGQPENNYKTTPPVLDSDGSFFLYSRLTVDKSRWQEGNVFSCSVMHEALHNHYTQKSLSLSLGK
light: B2 light
notes: Half-molecule of one heavy and one light chain; in PBS without other IgG it is reported to form a non-covalent dimer; also called hingeless IgG4 anti-CD20; IgG4 HG; not shown: human kappa light chain constant region, allotype km3 (vector pConKappa0.4, Lonza)
